Results reported in US20200317817A1 (XOMA US, published 2020).
Where a chain is given by its changes, count along the chain named. Blank lines part the entries; values can stand above or below the molecule they belong to.

Columns and labels:
[1] = target: T1, human PTH1R on Saos-2 cells (endogenous) (human, UniProt Q03431 27-593); assay: cell-based or functional assay
T1 sequence (looked up): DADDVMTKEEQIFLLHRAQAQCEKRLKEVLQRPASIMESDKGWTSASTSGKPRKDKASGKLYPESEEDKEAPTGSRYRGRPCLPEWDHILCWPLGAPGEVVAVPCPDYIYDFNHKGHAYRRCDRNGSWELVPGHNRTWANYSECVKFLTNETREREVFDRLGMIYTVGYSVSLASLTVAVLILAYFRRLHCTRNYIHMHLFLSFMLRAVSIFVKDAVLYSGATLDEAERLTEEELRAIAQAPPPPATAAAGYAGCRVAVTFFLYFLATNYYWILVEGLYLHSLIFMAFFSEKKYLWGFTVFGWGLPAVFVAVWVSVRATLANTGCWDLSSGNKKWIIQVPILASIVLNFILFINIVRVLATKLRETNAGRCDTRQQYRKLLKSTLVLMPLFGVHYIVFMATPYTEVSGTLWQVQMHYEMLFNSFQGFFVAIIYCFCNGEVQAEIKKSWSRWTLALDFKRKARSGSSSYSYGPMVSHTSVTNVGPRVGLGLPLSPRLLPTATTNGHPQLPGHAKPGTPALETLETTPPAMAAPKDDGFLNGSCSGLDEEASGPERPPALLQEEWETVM

[2] = target: T2, human PTH1R overexpressed on CHO cells (human, UniProt Q03431 27-593); assay: cell-based or functional assay
T2 sequence (looked up): T1 sequence (looked up)

[3] = target: T3, mouse PTH1R overexpressed on CHO cells (mouse, UniProt P41593 27-591); assay: cell-based or functional assay
T3 sequence (looked up): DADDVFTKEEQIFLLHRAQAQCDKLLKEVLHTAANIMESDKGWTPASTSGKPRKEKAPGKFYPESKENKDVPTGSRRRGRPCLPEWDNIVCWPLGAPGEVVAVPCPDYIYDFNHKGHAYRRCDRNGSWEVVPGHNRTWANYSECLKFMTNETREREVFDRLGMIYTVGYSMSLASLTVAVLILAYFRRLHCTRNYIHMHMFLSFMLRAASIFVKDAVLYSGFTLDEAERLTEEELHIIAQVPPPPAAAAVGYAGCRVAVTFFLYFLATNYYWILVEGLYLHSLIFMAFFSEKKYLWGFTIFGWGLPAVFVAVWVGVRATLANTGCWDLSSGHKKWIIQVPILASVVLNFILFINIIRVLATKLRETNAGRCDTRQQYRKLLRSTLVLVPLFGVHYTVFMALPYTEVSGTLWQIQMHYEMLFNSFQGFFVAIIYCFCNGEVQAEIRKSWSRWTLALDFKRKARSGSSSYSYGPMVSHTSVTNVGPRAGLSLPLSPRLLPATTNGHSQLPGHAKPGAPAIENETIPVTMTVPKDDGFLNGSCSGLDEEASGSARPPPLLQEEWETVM

[4] = target: T4, rat PTH1R on UMR106 cells (rat, UniProt P25961 27-591); assay: cell-based or functional assay
T4 sequence (looked up): T3 sequence (looked up) with P58S, L497P, I518T, N520T, I523L, T528A

[5] = target: T5, human PTH1R overexpressed on Saos-2 cells (human, UniProt Q03431 27-593); assay: flow cytometry on Saos-2 cells overexpressing human PTH1R, in the presence of 1 uM PTH, PE anti-human IgG
T5 construct: whole, on cells; also called Saos-2 human PTH1R cells
T5 sequence (looked up): T1 sequence (looked up)

[6] = target: T2, human PTH1R overexpressed on CHO cells; assay: cell-based or functional assay; remark: listed apart in the source
[7] = target: T3, mouse PTH1R overexpressed on CHO cells; assay: cell-based or functional assay; remark: listed apart in the source
[8] = target: T5, human PTH1R overexpressed on Saos-2 …; assay: flow cytometry on Saos-2 cells overexpressing human PTH1R, in the presence of 3 uM PTHrP, PE anti-human IgG
[9] = target: T6, recombinant N-terminal extracellular domain of the human PTH1R receptor (human, UniProt Q03431 27-188, limits assumed); assay: SPR, IgG captured, ECD injected
T6 construct: domain: N-terminal extracellular domain; Bought reagent; also called N-ECD PTH1R; PTH1R N-terminal ECD
T6 sequence (looked up): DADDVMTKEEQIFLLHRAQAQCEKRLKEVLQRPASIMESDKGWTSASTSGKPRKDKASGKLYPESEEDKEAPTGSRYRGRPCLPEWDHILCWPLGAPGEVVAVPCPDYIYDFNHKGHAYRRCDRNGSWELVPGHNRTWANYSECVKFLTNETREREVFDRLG
Procedure: An anti-human IgG-Fc CMS sensor chip (GE Healthcare) was prepared using standard amine coupling as described by the manufacturer's protocol for the capture Ab on a BIACORE 4000 system (GE Healthcare). Briefly, the chip surface was activated with a 10 minute injection at 10 μL/minute of a freshly mixed 1:1 solution of 0.1 M N-Hydroxysuccinimide (NHS) and 0.4 M 1-Ethyl-3-(3-dimethylaminopropyl) carbodiimide hydrochloride (EDC). Following the activation injection, 15 ug/mL anti-human IgG-Fc antibody in acetate pH 4.5 was injected at 10 μL/minute for 10 minutes to achieve a high density capture surface. 7 minutes of 1M Ethanolamine hydrochloride-NaOH pH 8.5 was injected to block the surface. The NHS, EDC, and Ethanolamine used were from the BIACORE Amine Coupling Kit.
Kinetic Analysis was performed using HBS-EP+(Teknova) with 2.5 mg/mL BSA (Sigma Aldrich, St. Louis Mo.). Antibodies were diluted to 0.5 μg/mL and captured to achieve a surface density of 100 to 200 RU. […] Injections were performed at 30 μL/minute for 240 seconds with a 360 second dissociation time. Regeneration was then performed with one 60 second injection 3M MgCl.
The data were analyzed using BIACORE 4000 Evaluation Software and was double referenced by subtracting both the blank flow cell data and the averaged bracketing blank injections. The data was fit by simultaneously fitting the an off-rate (kd) and on-rate (kₐ), and calculating the KD as KD=kd/kₐ.

[10] = target: T1, human PTH1R on Saos-2 cells (endogenous); assay: cell-based or functional assay; remark: listed apart in the source
[11] = target: T5, human PTH1R overexpressed on Saos-2 …; assay: flow cytometry on Saos-2 cells overexpressing human PTH1R, antibody alone, PE anti-human IgG
[12] = target: T7, human PTH2R overexpressed on CHO cells (human, UniProt P49190 25-550); assay: flow cytometry on CHO cells overexpressing human PTH2R, 1 hr at 4 C, APC anti-human IgG
T7 construct: whole, on cells; also called CHO human PTH2R
T7 sequence (P49190 25-550): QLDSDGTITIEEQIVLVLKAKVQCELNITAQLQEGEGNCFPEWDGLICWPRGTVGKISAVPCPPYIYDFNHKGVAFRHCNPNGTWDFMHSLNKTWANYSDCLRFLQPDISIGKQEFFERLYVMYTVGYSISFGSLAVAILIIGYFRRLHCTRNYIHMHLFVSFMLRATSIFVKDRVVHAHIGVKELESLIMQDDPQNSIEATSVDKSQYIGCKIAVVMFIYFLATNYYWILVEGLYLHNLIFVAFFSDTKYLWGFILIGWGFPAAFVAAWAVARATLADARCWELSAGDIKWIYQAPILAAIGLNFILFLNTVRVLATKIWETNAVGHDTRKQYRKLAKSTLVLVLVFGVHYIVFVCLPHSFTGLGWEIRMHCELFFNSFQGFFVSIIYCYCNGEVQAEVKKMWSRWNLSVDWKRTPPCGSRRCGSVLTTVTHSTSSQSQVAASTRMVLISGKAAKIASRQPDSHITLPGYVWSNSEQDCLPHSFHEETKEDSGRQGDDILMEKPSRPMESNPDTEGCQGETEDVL
Procedure: Increasing concentrations of anti-PTH1R antibodies were added to CHO cells overexpressing human PTH2R and incubated for 1 hr at 4° C. (FIG. 8). Cells were washed twice with FACS Buffer and antibody binding was detected with anti-human IgG APC. […] Anti-KLH.G2 was used a negative control for binding.
PTH2R has a 51% homology to PTH1R. […] Following two washes, cells were incubated with Allophycocyanin (APC) AffiniPure F(ab′)₂ Fragment Goat Anti-Human IgG (H+L) (Jackson ImmunoResearch, West Grove, Pa.) for 20 minutes at 4° C. Cells were washed twice and resuspended in FACS Buffer. Samples were acquired using BD Cytometer (BD Biosciences, San Jose, Calif.) and data were analyzed using FlowJo (FlowJo, LLC, Ashland, Oreg.) and Prism (GraphPad Software, La Jolla, Calif.). […] Anti-KLH.G2 was used a negative control for binding.

[13] = target: T1, human PTH1R on Saos-2 cells (endogenous); assay: cell-based or functional assay; remark: listed apart in the source
[14] = target: T4, rat PTH1R on UMR106 cells; assay: cell-based or functional assay; remark: listed apart in the source
[15] = target: T4, rat PTH1R on UMR106 cells; assay: flow cytometry, 1 hr at 4 C

- EC50 of PTHrP(1-34), cAMP assay, vehicle only [3]: 0.0431 nM
- EC50 of PTHrP(1-34), cAMP assay, vehicle only [4]: 0.333 nM
Molecule: human PTHrP(1-34) (from UniProt P12272 37-70) (peptide)

- IC50, inhibition of PTH(1-34)-induced cAMP accumulation [6]: 15.5 nM
- IC50, inhibition of PTHrP(1-34)-induced cAMP accumulation [6]: 15.3 nM
- IC50, inhibition of PTHrP(1-34)-induced cAMP accumulation [7]: 3.89 nM
- binding result [15]: binds
- Kd [9]: 0.18 nM
- koff [9]: 0.00023 s⁻¹
- kon [9]: 1.3e+06 M⁻¹ s⁻¹
B2: XPA.85.344 (antibody, V domains shown)
VH: QMQLVQSGAEVKKPGSSVKVSCKASGGTFSSYAISWVRQAPGQGLEWMGGIIPIFGTANYAQKFQGRVTITADESTSTAYMELSSLRSEDTAVYYCARGYVVARLWGQGTLVTVSS
VL: DVVMTQTPLSLSVTPGQPASFSCKSTQSLLWRDGNTYLYWYLQKPGQSPQLLIYEVSGRFSGVPERFSGSGSGTDFTLEISRVEAEDVGVYYCMQSIHFPLTFGGGTKLEIK
notes: Light-chain-shuffled variant of XPA.85.012

Second part, the molecule before the results:

Molecule: Human PTH(1-34) (from UniProt P01270 32-65) (peptide)
- EC50 of PTH(1-34), cAMP assay, vehicle only [1]: 0.524 nM
- PTH (1-34) dose response without anti-PTH1R antibody, M-CSF secretion by Saos-2 cells [1]: 1.2 nM
- EC50 of PTH (1-34) induced ERK1/2 phosphorylation without anti-PTH1R antibody [2]: 3.8 nM
- EC50 of PTH(1-34), cAMP assay, vehicle only [2]: 0.0307 nM
- EC50 of PTH(1-34), cAMP assay, vehicle only [3]: 0.0306 nM
- EC50 of PTH(1-34), cAMP assay, vehicle only [4]: 0.647 nM

B1: XPA.85.330 (antibody, V domains shown)
VH: B2 VH
VL: DIVMTQTPLSLSVTPGQPASISCKSSQSLLHIDGNTYLYWYLQRPGQPPQLLIYEISNRFSGVPDRFSGSGSGTDFTLKISRVEAEDVGVYYCMQSLHFPITFGQGTRLEIK
notes: IgG; also called Ab330
- EC50 [5]: 21.7 nM
- IC50, inhibition of PTH(1-34)-induced cAMP accumulation [6]: 10.6 nM
- IC50, inhibition of PTHrP(1-34)-induced cAMP accumulation [6]: 8.23 nM
- IC50, inhibition of PTHrP(1-34)-induced cAMP accumulation [7]: 2.82 nM
- EC50 [8]: 193 nM
- Kd [9]: 0.19 nM
- koff [9]: 9e-05 s⁻¹
- kon [9]: 470000 M⁻¹ s⁻¹
- EC50 of antibody, neutralization of M-CSF production induced by 12.5 nM PTHrP (1-36) [10]: 1.5 nM
- fold shift of the PTHrP (1-36) dose response, M-CSF secretion by Saos-2 cells, 40 µg/mL antibody [10]: > 200 fold
- EC50 [11]: 3.67 nM
- binding result [12]: no binding (tested: about 160 nM)
- % inhibition of cAMP accumulation at 1 µM PTH(1-34), 267 nM IgG [13]: 85%
- % inhibition of cAMP accumulation at 1 µM PTHrP(1-34), 267 nM IgG [13]: 89%
- % inhibition of cAMP accumulation at 1 µM PTH(1-34), 267 nM IgG [14]: 55%
- % inhibition of cAMP accumulation at 1 µM PTHrP(1-34), 267 nM IgG [14]: 56%

B3: XPA.85.343 (antibody, V domains shown)
VH: B2 VH
VL: B1 VL with I2V, N35R, R44K, P45A, I56V, L97I, I101L, Q105G, R108K
notes: as for B2
- IC50, inhibition of PTH(1-34)-induced cAMP accumulation [6]: 14.4 nM
- IC50, inhibition of PTHrP(1-34)-induced cAMP accumulation [6]: 17.8 nM
- IC50, inhibition of PTHrP(1-34)-induced cAMP accumulation [7]: 3.87 nM
- binding result [15]: binds
- Kd [9]: 0.42 nM
- koff [9]: 0.00045 s⁻¹
- kon [9]: 1.1e+06 M⁻¹ s⁻¹

B4: XPA.85.334 (antibody, V domains shown)
VH: B2 VH
VL: B1 VL with S22T, N35K, Y41F, R44K, I56V, S70T, Q105P
notes: as for B2
- IC50, inhibition of PTH(1-34)-induced cAMP accumulation (curve does not reach a plateau) [6]: 51.2 nM
- IC50, inhibition of PTHrP(1-34)-induced cAMP accumulation [6]: 12.4 nM
- IC50, inhibition of PTHrP(1-34)-induced cAMP accumulation [7]: 3.32 nM
- binding result [15]: binds
- Kd [9]: 0.25 nM
- koff [9]: 0.00021 s⁻¹
- kon [9]: 860000 M⁻¹ s⁻¹
